In paper PMC6761149:

Target: Q8DLC1
Assay: SAXS; ESRF BM29, 10 °C, 20 mM Tris/HCl pH 7.5, 500 mM NaCl, 20% (v/v) glycerol; dark holoprotein (NADPH, Pchlide) at 0.65 mg ml^-1; monomer content from I(0)
Conditions: other: SAXS

B1: light-dependent protochlorophyllide oxidoreductase of Thermosynechococcus elongatus BP-1 (TeLPOR) (protein)
chain: MSDQPRPTVIITGASSGVGLYATKALANRGWHVIMACRNLEKAEQAAKNLQIPPEAYTILHLDLSSLASVRGFVESFRALNRPLRALVCNAAVYYPLLKEPIYSVDGYEITVATNHLGHFLLINLLLEDLKNSPESDKRLVILGTVTANRKELGGKIPIPAPPDLGNLEGFEKGFKKPIAMINGKPFKSGKAYKDSKLCNMLTARELHRRFHESTGIVFNSLYPGCVADTPLFRHHFPLFQKLFPLFQKKITGGYVSQELAGERVAMVVADPEFRQSGVHWSWGNRQKEGRKAFVQELSAEASDEQKARRLWELSEKLVGLA
For B1, the “monomer content from I(0), with NADPH and Pchlide” value was “monomer content from I(0): 85.9%”.
